# Experimental data reported in PMC5750232, “RAD54 N-terminal domain is a DNA sensor that couples ATP hydrolysis with branch migration of Holliday junctions” (Nature Communications, 2018).
# Changes are numbered by the printed parent chain.
# T1: RAD54 1-142 52AA53 (human, UniProt Q92698 1-142, R52A;K53A)
# T1 sequence: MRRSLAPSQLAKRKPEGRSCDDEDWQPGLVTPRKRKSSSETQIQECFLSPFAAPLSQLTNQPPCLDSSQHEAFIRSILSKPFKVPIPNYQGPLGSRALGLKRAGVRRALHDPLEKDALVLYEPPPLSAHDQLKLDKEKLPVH
# T2: RAD54 1-142 T31E (human, UniProt Q92698 1-142, T31E)
# T2 sequence: T1 sequence with T31E, A52R, A53K
# B1: non-mobile PX junction (174/175/176/181) (structured_DNA)
# DNA 1: GACGCTGCCGAATTCTACCAGTGCCTTGCTAGGACATCTTTGCCCACCTGCAGGTTCACCC
# DNA 2: TGGGTGAACCTGCAGGTGGGCAAAGATGTCCTAGCAATGTAATCGTCAAGCTTTATGCCGTT
# DNA 3: CAACGGCATAAAGCTTGACGATTACATTGCTAGGACATGCTGTCTAGAGGATCCGACTATCGA
# DNA 4: TCGATAGTCGGATCCTCTAGACAGC
# Assays:
# RAD54 1-142 52AA53 = target: T1, RAD54 1-142 52AA53; assay: EMSA; similar to non-mutated 1-142; 5 mM Mg2+, 2 mM ATP; 25 mM Tris-acetate pH 7.5, 5 mM Mg acetate, 100 ug/ml BSA, 2 mM DTT, 2 mM ATP, 10% glycerol, 4 C, 45 min; 30 nM PX junction; 6% native PAGE in 0.25x TBE; details: protein: recombinant; tags: Sumo-His, cleaved; partial X junction with one ssDNA arm, 4 strands
# RAD54 1-142 T31E = target: T2, RAD54 1-142 T31E; assay: EMSA; no significant effect of mutation; 5 mM Mg2+, 2 mM ATP; 25 mM Tris-acetate pH 7.5, 5 mM Mg acetate, 100 ug/ml BSA, 2 mM DTT, 2 mM ATP, 10% glycerol, 4 C, 45 min; 30 nM PX junction; 6% native PAGE in 0.25x TBE; details: protein: recombinant; tags: Sumo-His, cleaved; partial X junction with one ssDNA arm, 4 strands
binder,measurement,setting,value
B1,binding result,RAD54 1-142 52AA53,binds
same,binding result,RAD54 1-142 T31E,binds
